Values of other authors as cited in article PMC4581962.

Molecular target: IL-6Rα (Homo sapiens) (UniProt P08887)
UniProt P08887, sequence (P08887 20-355): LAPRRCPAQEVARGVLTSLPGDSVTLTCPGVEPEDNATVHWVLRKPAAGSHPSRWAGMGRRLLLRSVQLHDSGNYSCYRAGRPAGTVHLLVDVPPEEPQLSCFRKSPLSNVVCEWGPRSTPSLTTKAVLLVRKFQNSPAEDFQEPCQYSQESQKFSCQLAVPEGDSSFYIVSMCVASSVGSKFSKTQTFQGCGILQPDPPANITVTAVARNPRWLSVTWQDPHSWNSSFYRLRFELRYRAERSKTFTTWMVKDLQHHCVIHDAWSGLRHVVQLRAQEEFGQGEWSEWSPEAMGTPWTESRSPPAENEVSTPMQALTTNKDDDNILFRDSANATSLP

- Kd: 9 nM
Substance: IL-6 (from UniProt P05231)
